Test results published in US20140113854.

With Human α-thrombin the “cleavage of the peptide by thrombin, HPLC of the intact peptide, 75 µM peptide, 23 nM thrombin, 37 °C” value (BRI-T208) was “BRI-T208 is significantly more resisitent to thrombin cleavage than BRI-T218” and the “cleavage of the peptide by thrombin, HPLC of the intact peptide, 75 µM peptide, 23 nM thrombin, 37 °C” value (BRI-T218) was “completely converted to the cleavage products within two hours under the specific experimental conditions”.
